The source of these data is doi:10.1101/2025.05.22.655451.

For this test, the target named is HA N-terminally tagged C99 (APP C-terminal fragment C99) (UniProt P05067). Nature of the test: proximity ligation.
Sequence of HA N-terminally tagged C99 (APP C-terminal fragment C99) (P05067 672-770): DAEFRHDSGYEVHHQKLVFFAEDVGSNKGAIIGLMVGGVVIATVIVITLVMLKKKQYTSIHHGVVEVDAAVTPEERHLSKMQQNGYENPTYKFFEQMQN
“MT5-MMP TM/IC (transmembrane and intracellular domains, extracellular domains depleted) (from UniProt Q9Y5R2 53-645) (domain or fragment)” yielded a PLA+ spots per cell (PLA+ spots per cell) of 25. In turn, “MT5-MMP TM/IC with alanine substitutions of the C-terminal PDZ-binding EWV motif (domain or fragment)” registered a PLA+ spots per cell (PLA+ spots per cell) of 21. The value for “Chimera of the TM of MT1-MMP and the IC of MT5-MMP” was 25.
